Ends that are not written are not given here.
B1: polypeptide obtained by Example 1: Purified S5 fraction polypeptide from small granules of horseshoe crab hemocytes; 79 amino acids, about 8,200 by SDS-PAGE (protein)
chain: NPLIPAIYIGATVGPSVWAYLVALVGAAAVTAANIRRASSDNHSCAGNRGWCRSKCFRHEYVDTYYSAVCGRYFCCRSR

Experiments:
Format in all cases: cell-based
[1] = test system: Escherichia coli; assay: Antimicrobial activity, growth inhibition at a single concentration (colony count); conditions: 50 μl of 40 μg/ml polypeptide added to 450 μl of 10,000 CFU/ml suspension in 10 mM phosphate buffer pH 7.0; 37° C. 1 hr
Description: (§1) Escherichia coli was suspended in 10 mM phosphate buffer, pH 7.0, at a concentration of 10,000 CFU/ml and 450 μl of the suspension was mixed with 50 μl each of polypeptide fraction T3 (polypeptide of [Formula 4]) (SEQ ID NO:3), T6 (polypeptide of [Formula 5]) (SEQ ID NO:4), and a polypeptide obtained by Example 1 each having a concentration of 40 μg/ml, and as a control 10 mM phosphate buffer, pH 7.0. The mixtures were incubated at 37° C. for 1 hr. Then, 100 μl of incubated mixture was inoculated in an agar medium, cultured at 37° C. for 12 hrs. and the number of colonies were counted with naked eye.

[2] = test system: Staphylococcus aureus; assay: as above; conditions: 50 μl of 40 μg/ml polypeptide added to 450 μl of 5,000 CFU/ml suspension in 10 mM phosphate buffer pH 7.0; 37° C. 1 hr
Description: as §1, with “In addition, Staphylococcsii aureus” for “Escherichia coli”, “5,000” for “10,000”, “4]),” for “4]) (SEQ ID NO:3),”

[3] = test system: Candida albicans; assay: Determination of antimicrobial activity (colony count after 1 hr incubation in hypotonic buffer); conditions: 10 mM phosphate buffer pH 7.0 (hypotonic), 37° C. 1 hr, then agar culture 12 hrs
Description: (§2) Various microorganisms shown in Table 3 were suspended in 10 mM phosphate buffer, pH 7.0 (hypotonic solution). In 900 μl of 5,000-10,000 CFU/ml suspension, 100 μl of 2-fold serial diluted polypeptide solution at a concentration of 20 μg/ml obtained by Example 1 was added and incubated at 37° C. for 1 hr. Then, 100 μl of incubated mixture was inoculated in an agar medium, cultured at 37° C. for 12 hrs. and the number of colonies was counted with naked eye (see Infections and Immunity, 42, 10-14 (1983)). CFU means colony forming unit.

[4] = test system: Escherichia coli; assay: as above; conditions: 10 mM phosphate buffer pH 7.0 (hypotonic), 37° C. 1 hr, then agar culture 12 hrs
Description: as §2

[5] = test system: Klebsiella pneumoniae; assay: as above; conditions: 10 mM phosphate buffer pH 7.0 (hypotonic), 37° C. 1 hr, then agar culture 12 hrs
Description: as §2

[6] = test system: S. minnesota Re; assay: as above; conditions: 10 mM phosphate buffer pH 7.0 (hypotonic), 37° C. 1 hr, then agar culture 12 hrs
Description: as §2

[7] = test system: Salmonella typhimurium LT2(S); assay: as above; conditions: 10 mM phosphate buffer pH 7.0 (hypotonic), 37° C. 1 hr, then agar culture 12 hrs
Description: as §2

[8] = test system: Staphylococcus aureus; assay: as above; conditions: 10 mM phosphate buffer pH 7.0 (hypotonic), 37° C. 1 hr, then agar culture 12 hrs
Description: as §2

Row | Molecule | inhibited the growth of Escherichia coli at a rate of [1] | inhibited the growth of Staphylococcus aureus at a rate of [2] | IC50 (μg/ml) (hypotension) [3] | IC50 in hypotonic buffer [4] | IC50 (μg/ml) (hypotension) [5] | IC50 (μg/ml) (hypotension) [6] | IC50 (μg/ml) (hypotension) [7] | IC50 (μg/ml) (hypotension) [8]
1 | T3: Trypsin degradation fraction of the Example 1 polypeptide, eluted at 27 min; 42 residues, C-terminal defensin-like part (ASSDNHSCAGNRGWCRSKCFRHEYVDTYYSAVCGRYFCCRSR; not fully specified (bridges); cysteine pairing not given here) | about 90% | about 30% | – | – | – | – | – | –
2 | B1 | ≥ 95% | almost completely | 10 to 20 µg/mL | 2.5 µg/mL | < 1.3 µg/mL | < 0.6 µg/mL | 20 µg/mL | < 2.5 µg/mL

Source: patent publication US5965725A, “Polypeptides, and preparation and DNA encoding thereof” (Seikagaku Kogyo Kabushiki Kaisha, priority 1994, dated 1999)
